The source of these data is publication PMC6454087.

The target in this assay is mouse rec1c sNASP variant protein (V281I, L282F) (mouse). In words: BLI; Octet K2, 30 C; sNASP WT or variant immobilised on aminopropylsilane (APS) biosensors, histones in assay buffer at various concentrations (62.5 to 1,000 nM shown for H4), association 240 s; n = 4. (In general: In BLI a coated tip is dipped into the sample, and binding shifts an interference pattern.)

One may read the pKd as −log10 of the Kd, conventionally taken in molar units. A high value points to a small Kd. One may read the kon as the second-order rate constant of association.

pKd: −log10 of the molar value.

In the case of “mouse histone H4 (from UniProt P62806 1-103) (natural protein)”, the negative logarithm of the Kd (pKd) is 7.63 and the on-rate constant (kon) was found to be 15900 M⁻¹ s⁻¹.
The substance “mouse H3.1/H4 tetramer complex (from UniProt P68433 1-136; P62806 1-103)” showed a negative logarithm of the Kd (pKd) of 7.84 and a kon of 37200 M⁻¹ s⁻¹.
